Measurements from PMC2636890.

Experiments:
[1] = target: SR-BI-Short, a shorter isoform of SR-BI produced by alternative splicing that removes 100 amino acids of the ectodomain (human) (UniProt Q8WTV0)
[2] = target: soluble recombinant form of HCV E2 glycoprotein (sE2), derived from H77-E2, harbouring a His-tag (UniProt P27958); assay: flow cytometry on cells (sE2 binding); details: BRL3A cells expressing only the indicated SR-BI mutant; sE2-containing medium vs. sE2-free medium; mean±SD, n = 3; parent: est. 100; read off a plot

Sequence of UniProt Q8WTV0 (Q8WTV0 other isoform, or with tags, fused parts or gaps): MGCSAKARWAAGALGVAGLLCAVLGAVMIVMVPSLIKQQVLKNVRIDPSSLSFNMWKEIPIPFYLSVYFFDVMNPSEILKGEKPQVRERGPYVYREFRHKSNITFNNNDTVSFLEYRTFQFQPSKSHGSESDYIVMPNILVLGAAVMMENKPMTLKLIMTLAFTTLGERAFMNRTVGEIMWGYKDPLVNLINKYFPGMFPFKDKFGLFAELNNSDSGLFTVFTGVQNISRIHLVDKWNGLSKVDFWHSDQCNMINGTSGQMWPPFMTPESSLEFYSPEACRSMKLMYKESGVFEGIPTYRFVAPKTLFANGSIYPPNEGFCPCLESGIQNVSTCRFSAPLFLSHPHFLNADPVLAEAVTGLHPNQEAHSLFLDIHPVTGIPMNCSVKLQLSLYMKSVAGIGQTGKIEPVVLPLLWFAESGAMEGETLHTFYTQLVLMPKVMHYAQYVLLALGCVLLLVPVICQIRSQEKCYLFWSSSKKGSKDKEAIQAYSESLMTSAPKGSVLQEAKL

Q: “soluble recombinant form of HCV E2 glycoprotein (sE2), derived from H77-E2, harbouring a His-tag (from UniProt P27958 384-661) (domain or fragment)” was tested. Which entry of HCVpp (H77 E1E2) into BRL3A-CD81-CLDN1 cells expressing the SR-BI form, fold reduction against wt SR-BI [1] did it give?
A: > 10 fold

Q: “human scavenger receptor class B type I (SR-BI), wild type (from UniProt Q8WTV0-2) SES” was tested. Which percent of parent (% of wt SR-BI (set to 100)) [2] did it give?
A: 100
